This is an account of results in patent publication US10660939 (PALATIN TECHNOLOGIES, dated 2020).

Positions of bridges follow the written chain, without caps; N, C: chain ends. Non-standard residues stand in square brackets, D forms with d. 2Nal = N[C@@H](Cc1ccc2ccccc2c1)C(=O)O; Aad = N[C@@H](CCCC(=O)O)C(=O)O; Orn = NCCC[C@H](N)C(=O)O; Dab = NCC[C@H](N)C(=O)O

B1: Peptide No. 162 (peptide)
peptide: Ac-RKN[dF]R[2Nal]D-NH2
modifications: lactam 2-7
SMILES: CC(=O)N[C@@H](CCCNC(=N)N)C(=O)N[C@H]1CCCCNC(=O)C[C@@H](C(N)=O)NC(=O)[C@H](Cc2ccc3ccccc3c2)NC(=O)[C@H](CCCNC(=N)N)NC(=O)[C@@H](Cc2ccccc2)NC(=O)[C@H](CC(N)=O)NC1=O
notes: also called Ac-Arg-cyclo(Lys-Asn-D-Phe-Arg-Nal2-Asp)-NH2
B2: Peptide No. 159 (peptide)
peptide: RXQFRWX
modifications: N-terminal Ac; Dab 2 (X); D-Phe 4; hGlu 7 (X); cyclo(Dab 2-hGlu 7); C-terminal NH2
notes: also called Ac-Arg-cyclo(Dab-Gln-D-Phe-Arg-Trp-hGlu)-NH2
B3: Peptide No. 160 (peptide)
peptide: Ac-R[Aad]N[dF]RW[Dab]-NH2
modifications: lactam 2-7
notes: also called Ac-Arg-cyclo(hGlu-Asn-D-Phe-Arg-Trp-Dab)-NH2
B4: Peptide No. 161 (peptide)
peptide: Ac-REN[dF]RW[Orn]-NH2
modifications: lactam 2-7
notes: also called Ac-Arg-cyclo(Glu-Asn-D-Phe-Arg-Trp-Orn)-NH2
B5: Peptide No. 155 (peptide)
peptide: Ac-RKN[dF]RWD-NH2
modifications: lactam 2-7
notes: also called Ac-Arg-cyclo(Lys-Asn-D-Phe-Arg-Trp-Asp)-NH2
B6: Peptide No. 165 (peptide)
peptide: Ac-RE[Dab][dF]RW[Orn]-NH2
modifications: lactam 2-7
notes: also called Ac-Arg-cyclo(Glu-Dab-D-Phe-Arg-Trp-Orn)-NH2
B7: Peptide No. 28 (peptide)
peptide: RDRFRWK
modifications: N-terminal Ac; D-Phe 4; cyclo(Asp 2-Lys 7); C-terminal NH2
notes: also called Ac-Arg-cyclo(Asp-Arg-D-Phe-Arg-Trp-Lys)-NH2
B8: Peptide No. 73 (peptide)
peptide: RDRFRWK
modifications: N-terminal Ac; D-Phe 4; cyclo(Asp 2-Lys 7); C-terminal OH
notes: also called Ac-Arg-cyclo(Asp-Arg-D-Phe-Arg-Trp-Lys)-OH

Chain of human melanocortin receptor-1 (Q01726 whole entry): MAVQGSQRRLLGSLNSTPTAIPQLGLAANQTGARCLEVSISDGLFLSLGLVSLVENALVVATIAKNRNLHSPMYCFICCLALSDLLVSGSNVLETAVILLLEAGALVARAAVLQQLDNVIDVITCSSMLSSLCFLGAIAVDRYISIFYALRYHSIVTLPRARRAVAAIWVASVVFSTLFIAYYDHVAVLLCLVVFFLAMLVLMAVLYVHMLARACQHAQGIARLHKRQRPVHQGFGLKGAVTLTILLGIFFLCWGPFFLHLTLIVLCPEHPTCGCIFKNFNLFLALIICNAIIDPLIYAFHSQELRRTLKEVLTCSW

The target of the first experiment is T1, human melanocortin receptor-4 (human, UniProt P32245 1-332). Kind of experiment: cell-based or functional assay.
T1 sequence (P32245 whole entry): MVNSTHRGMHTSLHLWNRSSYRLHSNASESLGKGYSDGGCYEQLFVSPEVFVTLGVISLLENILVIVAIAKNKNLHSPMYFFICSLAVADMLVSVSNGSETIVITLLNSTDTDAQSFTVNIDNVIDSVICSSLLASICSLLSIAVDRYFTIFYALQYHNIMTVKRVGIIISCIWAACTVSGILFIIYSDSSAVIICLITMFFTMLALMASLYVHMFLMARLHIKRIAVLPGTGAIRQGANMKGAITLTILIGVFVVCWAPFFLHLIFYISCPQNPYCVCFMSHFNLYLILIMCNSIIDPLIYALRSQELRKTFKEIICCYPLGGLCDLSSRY
B1: the “hMC4r EC50” value was 0.85 nM and the “hMC4r Emax” value was determined as 82%.
For B2, in that order: 0.825 nM and 99%.
For B3, in that order: 0.245 nM and 98%.
On to B4, for which the “hMC4r EC50” value worked out at 0.413 nM and the “hMC4r Emax” value was determined as 91%.
Take Ac-[dR]DQ[dF]RWK-NH2 (lactam 2-7) [Peptide No. 71]: the “hMC4r Emax” value came out at 89%.
Consider B5, for which the “hMC4r EC50” value amounted to 0.189 nM and the “hMC4r Emax” value was found to be 97%.
Turning to Ac-[dR][Orn]Q[dF]RWE-NH2 (lactam 2-7) [Peptide No. 152], the “hMC4r Emax” value worked out at 89%.

The next experiment has as its target human melanocortin receptor-1 (human, UniProt Q01726 1-317). Kind of experiment: cell-based or functional assay.
Consider B1, for which the “hMC1r EC50” value is 22 nM and the “hMC1r Emax” value was 89%.
On the same counts, the results for B2 are 26 nM and 98%.
For B4, in that order: 13 nM and 85%.
In the case of Ac-[dR]DQ[dF]RWK-NH2 (lactam 2-7) [Peptide No. 71], the “hMC1r Emax” value came out at 88%.
For B5, the “hMC1r EC50” value was 14 nM and the “hMC1r Emax” value was found to be 91%.
Ac-R[Orn]Q[dF]RWE-NH2 (lactam 2-7) [Peptide No. 150]: the “hMC1r Emax” value came to 89%.
On the same count and under the same terms, the result for Ac-[dR][Orn]Q[dF]RWE-NH2 (lactam 2-7) [Peptide No. 152] reads 85%.
For the molecule Ac-R[Orn]N[dF]RWE-NH2 (lactam 2-7) [Peptide No. 154], the “hMC1r EC50” value worked out at 25 nM.
As for Ac-[dR][Orn]N[dF]RWE-NH2 (lactam 2-7) [Peptide No. 156], the “hMC1r EC50” value is 80 nM and the “hMC1r Emax” value was 81%.

Another experiment deals with T1, human melanocortin receptor-4. Kind of experiment: competition with [I125]-NDP-α-MSH, hMC4r HEK-293 membranes.
One may read the Ki as a measure of affinity in units of concentration, obtained from inhibition or displacement. A high value points to a looser hold on the target. As for B6, the affinity corresponds to a Ki of 0.65 nM. This counts as sub-nanomolar.

Another experiment shares this target. Briefly: cell-based or functional assay. This is another data set of the same source.
On to Ac-R[Aad]H[dF]RW[Dab]-NH2 (lactam 2-7) [Peptide No. 126], for which the “intrinsic activity (cAMP, NDP-α-MSH is 100%)” value was 101%.
Still for that read-out and setting: the result for Ac-RDV[dF]RWK-NH2 (lactam 2-7) [Peptide No. 16] reads 42%.
The same measure, in the same setting: the same measure for Ac-R[Dab]H[dF]RW[Aad]-NH2 (lactam 2-7) [Peptide No. 128]: 95%; for Ac-RDH[dF]RWK-NH2 (lactam 2-7) [Peptide No. 1]: 91%.
Still for that read-out and setting: the result for Ac-RDQ[dF]RWK-NH2 (lactam 2-7) [Peptide No. 32] reads 98%.

For the next experiment the target is unchanged. Kind of experiment: competition with Eu-NDP-α-MSH, hMC4r HEK-293 membranes. The procedure: After incubation for 90 minutes at 37° C., the reaction was stopped by filtration over AcroWell 96-well filter plates (Pall Life Sciences). The filter plates were washed 4 times with 200 μL of ice-cold phosphate-buffered saline. DELFIA Enhancement solution (PerkinElmer Life Sciences) was added to each well. The plates were incubated on a shaker for 15 minutes and read at 340 nm excitation and 615 nm emission wavelengths. Each assay was conducted in duplicate and mean values were utilized. Ki values were determined by curve-fitting with Graph-Pad Prism® software using a one-site fixed-slope competition binding model.
Consider B7, for which the inhibition constant Ki was 4 nM. In other words, the single-digit nanomolar range.
Still for that read-out and setting: the result for B8 reads 60 nM.

The target is the same in the next experiment. Briefly: ratio of Ki at hMC1r to Ki at hMC4r.
Consider B1, for which the “binding selectivity, MC4r against MC1r” value was 20 fold.
Same read-out and setting: the result for B2 reads 20 fold; that for B4, 20 fold; that for B5, 20 fold.
